# Measurements: patent publication US20260028391A1
# How the values were obtained:
# [1] = biological target: RSV B 9719/09 fusion glycoprotein (F) (RSV B, strain 9719/09); experiment: cell-based or functional assay
# [2] = biological target: RSV A Randall fusion glycoprotein (F) (RSV A, strain Randall); experiment: cell-based or functional assay
# [3] = biological target: RSV fusion glycoprotein (RSV-F) of RSV-A (A2) (respiratory syncytial virus A, strain A2) (UniProt P03420); experiment: cell-based or functional assay
# [4] = biological target: RSV fusion glycoprotein (RSV-F) of the RSV used in the neutralization of Table 33 (respiratory syncytial virus, strain not stated); experiment: cell-based or functional assay
# [5] = biological target: RSV fusion glycoprotein (RSV-F) of RSV-B (B1) (respiratory syncytial virus B, strain B1) (UniProt O36634); experiment: cell-based or functional assay
# [6] = biological target: fusion glycoprotein (F) of the MPV used in the neutralization of Table 34 (metapneumovirus); experiment: cell-based or functional assay
# [7] = biological target: fusion glycoprotein of the RSV used in the neutralization assay of Example 1 (respiratory syncytial virus (strain not stated)); experiment: cell-based or functional assay
# [8] = biological target: RSV fusion glycoprotein (RSV-F) (respiratory syncytial virus (strain not stated)); experiment: SPR; sensors loaded with RSV-F, mAb in solution (Experiment 2)
# [9] = biological target: RSV fusion glycoprotein (RSV-F) (respiratory syncytial virus); experiment: SPR; F protein loaded on streptavidin sensors, mAb in solution
# Chain of palivizumab (antibody) (VH): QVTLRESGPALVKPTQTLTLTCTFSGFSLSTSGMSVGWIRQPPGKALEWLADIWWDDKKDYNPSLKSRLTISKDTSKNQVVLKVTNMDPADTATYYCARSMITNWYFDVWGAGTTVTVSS
# Chain of palivizumab (antibody) (VL): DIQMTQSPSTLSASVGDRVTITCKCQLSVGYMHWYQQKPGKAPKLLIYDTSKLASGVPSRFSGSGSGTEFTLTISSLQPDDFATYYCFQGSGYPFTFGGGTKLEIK
substance,measurement,setting,value
Palivizumab (antibody),"IC50, virus neutralization",[1],0.0786 µg/mL
same,"IC50, virus neutralization",[2],0.122 µg/mL
MEDI8897-rIgG1-YTE (nirsevimab) (antibody),"Neutralization (IC50, ng/ml)",[3],0.2 ng/mL
same,IC50 (ng/mL) in neutralization against RSV,[4],0.549 ng/mL
same,"Neutralization (IC50, ng/ml)",[5],0.4 ng/mL
same,IC50 (ng/mL) in neutralization against MPV,[6],> 2000 ng/mL
palivizumab (antibody),RSV Neutralization - IC50,[7],0.156 µg/mL
same,Kd,[8],2.6 nM
same,Kd,[9],2.6 nM
D25-rIgG1 (antibody),IC50 (ng/mL) in neutralization against RSV,[4],0.929 ng/mL
same,IC50 (ng/mL) in neutralization against MPV,[6],> 2000 ng/mL
